From the RNAGym collection of RNA variant scans (doi:10.1093/molbev/msab373)

B1: Azoarcus group I ribozyme (parent)
chain: GUGCCUUGCGCCGGGAAACCACGCAAGGGAUGGUGUCAAAUUCGGCGAAACCUAAGCGCCCGCCCGGGCGUAUGGCAACGCCGAGCCAAGCUUCGGCGCCUGCGCCGAUGAAGGUGUAGAGACUAGACGGCACCCACCUAAGGCAAACGCUAUGGUGAAGGCAUAGUCCAGGGAGUGGCGAAAGUCACACAAACCGG

Variants of: B1
Test: reverse-splicing fitness (ratio to wild type); higher = more active; in vitro selection; Mg2+ level not given
In short: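 An in vitro group I ribozyme library with randomized positions was T7-transcribed and gel-purified. In triplicate, 10 pmol RNA in EPPS pH 7.5 was reacted with 50 pmoles of a 30-nt RNA substrate for 1 h at 37 °C across several added MgCl2 levels (1–48 mM), then stopped with EDTA. Products were reverse transcribed from a substrate-complementary primer, PCR-amplified and sequenced (HiSeq 4000). Fitness is a variant's read proportion after selection over that before, normalised to wild type.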

| Variant | reverse-splicing fitness |
| --- | --- |
| GUGCCUUGCGCCGGGAAACCACGCAAGGGAUGGUGUCAAAUUCGGCGAAACCUAAGCGCCCGCCCGGGCGUAUGGCAACGCGGAGCCAAGCUUCGGCGCCUGCGCCGAUGGAGGUGUAGCGACUAGACGGCACCCACCUAAGGCAAACGGUAUGGUGAAGGCAUAGUCUAGGGAGUGGCGAAAGUCACACAAACCGG | 0.0104 |
| GUGCCUUGCGCCGGGAAACCACGCAAGGGAUGGUGUCAAAUUCGGCGAAACCUAAGCGCCCGCCCGGGCGUAUGGCAACGCGGAGCCAAGCUUCGGCGCCUGCGCCGAUGGAGGUGUAGCGACUAGACGGCACCCACCUAAGGCAAACGUUAUGGUGAAGGCAUAGUCCAGGGAGUGGCGAAAGUCACACAAACCGG | 0.0417 |
| GUGCCUUGCGCCGGGAAACCACGCAAGGGAUGGUGUCAAAUUCGGCGAAACCUAAGCGCCCGCCCGGGCGUAUGGCAACGCGGAGCCAAGCUUCGGCGCCUGCGCCGAUGGAGGUGUAGCGACUAGACGGCACCCACCUAAGGCAAACGCUAUGGUGAAGGCAUAGUCAAGGGAGUGGCGAAAGUCACACAAACCGG | 0.0101 |
| GUGCCUUGCGCCGGGAAACCACGCAAGGGAUGGUGUCAAAUUCGGCGAAACCUAAGCGCCCGCCCGGGCGUAUGGCAACGCGGAGCCAAGCUUCGGCGCCUGCGCCGAUGGAGGUGUAGCGACUAGACGGCACCCACCUAAGGCAAACGCUAUGGUGAAGGCAUAGUCGAGGGAGUGGCGAAAGUCACACAAACCGG | 0.00841 |
| GUGCCUUGCGCCGGGAAACCACGCAAGGGAUGGUGUCAAAUUCGGCGAAACCUAAGCGCCCGCCCGGGCGUAUGGCAACGCGGAGCCAAGCUUCGGCGCCUGCGCCGAUGGAGGUGUAGCGACUAGACGGCACCCACCUAAGGCAAACGUUAUGGUGAAGGCAUAGUCUAGGGAGGGGCGAAAGUCACACAAACCGG | 0.00815 |
| GUGCCUUGCGCCGGGAAACCACGCAAGGGAUGGUGUCAAAUUCGGCGAAACCUAAGCGCCCGCCCGGGCGUAUGGCAACGCGGAGCCAAGCUUCGGCGCCUGCGCCGAUGGAGGUGUAGCGACUAGACGGCACCCACCUAAGGCAAACGUUAUGGUGAAGGCAUAGUCUAGGGAGCGGCGAAAGUCACACAAACCGG | 0.017 |
| GUGCCUUGCGCCGGGAAACCACGCAAGGGAUGGUGUCAAAUUCGGCGAAACCUAAGCGCCCGCCCGGGCGUAUGGCAACGCGGAGCCAAGCUUCGGCGCCUGCGCCGAUGGAGGUGUAGCGACUAGACGGCACCCACCUAAGGCAAACGUUAUGGUGAAGGCAUAGUCUAGGGAGAGGCGAAAGUCACACAAACCGG | 0.0166 |
| GUGCCUUGCGCCGGGAAACCACGCAAGGGAUGGUGUCAAAUUCGGCGAAACCUAAGCGCCCGCCCGGGCGUAUGGCAACGCGGAGCCAAGCUUCGGCGCCUGCGCCGAUGGAGGUGUAGCGACUAGACGGCACCCACCUAAGGCAAACGGUAUGGUGAAGGCAUAGUCUAGGGAGAGGCGAAAGUCACACAAACCGG | 0.00806 |
| GUGCCUUGCGCCGGGAAACCACGCAAGGGAUGGUGUCAAAUUCGGCGAAACCUAAGCGCCCGCCCGGGCGUAUGGCAACGCGGAGCCAAGCUUCGGCGCCUGCGCCGAUGGAGGUGUAGCGACUAGACGGCACCCACCUAAGGCAAACGGUAUGGUGAAGGCAUAGUCUAGGGAGCGGCGAAAGUCACACAAACCGG | 0.0135 |
| GUGCCUUGCGCCGGGAAACCACGCAAGGGAUGGUGUCAAAUUCGGCGAAACCUAAGCGCCCGCCCGGGCGUAUGGCAACGCGGAGCCAAGCUUCGGCGCCUGCGCCGAUGGAGGUGUAGCGACUAGACGGCACCCACCUAAGGCAAACGGUAUGGUGAAGGCAUAGUCUAGGGAGGGGCGAAAGUCACACAAACCGG | 0.0076 |
| GUGCCUUGCGCCGGGAAACCACGCAAGGGAUGGUGUCAAAUUCGGCGAAACCUAAGCGCCCGCCCGGGCGUAUGGCAACGCGGAGCCAAGCUUCGGCGCCUGCGCCGAUGGAGGUGUAGCGACUAGACGGCACCCACCUAAGGCAAACGCUAUGGUGAAGGCAUAGUCAAGGGAGCGGCGAAAGUCACACAAACCGG | 0.0162 |
| GUGCCUUGCGCCGGGAAACCACGCAAGGGAUGGUGUCAAAUUCGGCGAAACCUAAGCGCCCGCCCGGGCGUAUGGCAACGCGGAGCCAAGCUUCGGCGCCUGCGCCGAUGGAGGUGUAGCGACUAGACGGCACCCACCUAAGGCAAACGCUAUGGUGAAGGCAUAGUCAAGGGAGAGGCGAAAGUCACACAAACCGG | 0.017 |
| GUGCCUUGCGCCGGGAAACCACGCAAGGGAUGGUGUCAAAUUCGGCGAAACCUAAGCGCCCGCCCGGGCGUAUGGCAACGCGGAGCCAAGCUUCGGCGCCUGCGCCGAUGGAGGUGUAGCGACUAGACGGCACCCACCUAAGGCAAACGCUAUGGUGAAGGCAUAGUCAAGGGAGGGGCGAAAGUCACACAAACCGG | 0.00532 |
| GUGCCUUGCGCCGGGAAACCACGCAAGGGAUGGUGUCAAAUUCGGCGAAACCUAAGCGCCCGCCCGGGCGUAUGGCAACGCGGAGCCAAGCUUCGGCGCCUGCGCCGAUGGAGGUGUAGCGACUAGACGGCACCCACCUAAGGCAAACGUUAUGGUGAAGGCAUAGUCCAGGGAGCGGCGAAAGUCACACAAACCGG | 0.0344 |
| GUGCCUUGCGCCGGGAAACCACGCAAGGGAUGGUGUCAAAUUCGGCGAAACCUAAGCGCCCGCCCGGGCGUAUGGCAACGCGGAGCCAAGCUUCGGCGCCUGCGCCGAUGGAGGUGUAGCGACUAGACGGCACCCACCUAAGGCAAACGUUAUGGUGAAGGCAUAGUCCAGGGAGAGGCGAAAGUCACACAAACCGG | 0.0201 |
| GUGCCUUGCGCCGGGAAACCACGCAAGGGAUGGUGUCAAAUUCGGCGAAACCUAAGCGCCCGCCCGGGCGUAUGGCAACGCGGAGCCAAGCUUCGGCGCCUGCGCCGAUGGAGGUGUAGCGACUAGACGGCACCCACCUAAGGCAAACGUUAUGGUGAAGGCAUAGUCCAGGGAGGGGCGAAAGUCACACAAACCGG | 0.0127 |
| GUGCCUUGCGCCGGGAAACCACGCAAGGGAUGGUGUCAAAUUCGGCGAAACCUAAGCGCCCGCCCGGGCGUAUGGCAACGCGGAGCCAAGCUUCGGCGCCUGCGCCGAUGGAGGUGUAGCGACUAGACGGCACCCACCUAAGGCAAACGGUAUGGUGAAGGCAUAGUCCAGGGAGGGGCGAAAGUCACACAAACCGG | 0.00412 |
| GUGCCUUGCGCCGGGAAACCACGCAAGGGAUGGUGUCAAAUUCGGCGAAACCUAAGCGCCCGCCCGGGCGUAUGGCAACGCGGAGCCAAGCUUCGGCGCCUGCGCCGAUGGAGGUGUAGCGACUAGACGGCACCCACCUAAGGCAAACGGUAUGGUGAAGGCAUAGUCCAGGGAGCGGCGAAAGUCACACAAACCGG | 0.0121 |
| GUGCCUUGCGCCGGGAAACCACGCAAGGGAUGGUGUCAAAUUCGGCGAAACCUAAGCGCCCGCCCGGGCGUAUGGCAACGCGGAGCCAAGCUUCGGCGCCUGCGCCGAUGGAGGUGUAGCGACUAGACGGCACCCACCUAAGGCAAACGGUAUGGUGAAGGCAUAGUCCAGGGAGAGGCGAAAGUCACACAAACCGG | 0.00594 |
| GUGCCUUGCGCCGGGAAACCACGCAAGGGAUGGUGUCAAAUUCGGCGAAACCUAAGCGCCCGCCCGGGCGUAUGGCAACGCGGAGCCAAGCUUCGGCGCCUGCGCCGAUGGAGGUGUAGCGACUAGACGGCACCCACCUAAGGCAAACGGUAUGGUGAAGGCAUAGUCGAGGGAGGGGCGAAAGUCACACAAACCGG | 0.00647 |
| GUGCCUUGCGCCGGGAAACCACGCAAGGGAUGGUGUCAAAUUCGGCGAAACCUAAGCGCCCGCCCGGGCGUAUGGCAACGCGGAGCCAAGCUUCGGCGCCUGCGCCGAUGGAGGUGUAGCGACUAGACGGCACCCACCUAAGGCAAACGGUAUGGUGAAGGCAUAGUCGAGGGAGCGGCGAAAGUCACACAAACCGG | 0.0117 |
| GUGCCUUGCGCCGGGAAACCACGCAAGGGAUGGUGUCAAAUUCGGCGAAACCUAAGCGCCCGCCCGGGCGUAUGGCAACGCGGAGCCAAGCUUCGGCGCCUGCGCCGAUGGAGGUGUAGCGACUAGACGGCACCCACCUAAGGCAAACGUUAUGGUGAAGGCAUAGUCGAGGGAGAGGCGAAAGUCACACAAACCGG | 0.0185 |
| GUGCCUUGCGCCGGGAAACCACGCAAGGGAUGGUGUCAAAUUCGGCGAAACCUAAGCGCCCGCCCGGGCGUAUGGCAACGCGGAGCCAAGCUUCGGCGCCUGCGCCGAUGGAGGUGUAGCGACUAGACGGCACCCACCUAAGGCAAACGUUAUGGUGAAGGCAUAGUCGAGGGAGCGGCGAAAGUCACACAAACCGG | 0.0206 |
| GUGCCUUGCGCCGGGAAACCACGCAAGGGAUGGUGUCAAAUUCGGCGAAACCUAAGCGCCCGCCCGGGCGUAUGGCAACGCGGAGCCAAGCUUCGGCGCCUGCGCCGAUGGAGGUGUAGCGACUAGACGGCACCCACCUAAGGCAAACGUUAUGGUGAAGGCAUAGUCGAGGGAGGGGCGAAAGUCACACAAACCGG | 0.00572 |
| GUGCCUUGCGCCGGGAAACCACGCAAGGGAUGGUGUCAAAUUCGGCGAAACCUAAGCGCCCGCCCGGGCGUAUGGCAACGCGGAGCCAAGCUUCGGCGCCUGCGCCGAUGGAGGUGUAGCGACUAGACGGCACCCACCUAAGGCAAACGUUAUGGUGAAGGCAUAGUCAAGGGAGGGGCGAAAGUCACACAAACCGG | 0.00693 |
| GUGCCUUGCGCCGGGAAACCACGCAAGGGAUGGUGUCAAAUUCGGCGAAACCUAAGCGCCCGCCCGGGCGUAUGGCAACGCGGAGCCAAGCUUCGGCGCCUGCGCCGAUGGAGGUGUAGCGACUAGACGGCACCCACCUAAGGCAAACGUUAUGGUGAAGGCAUAGUCAAGGGAGCGGCGAAAGUCACACAAACCGG | 0.0182 |
| GUGCCUUGCGCCGGGAAACCACGCAAGGGAUGGUGUCAAAUUCGGCGAAACCUAAGCGCCCGCCCGGGCGUAUGGCAACGCGGAGCCAAGCUUCGGCGCCUGCGCCGAUGGAGGUGUAGCGACUAGACGGCACCCACCUAAGGCAAACGUUAUGGUGAAGGCAUAGUCAAGGGAGAGGCGAAAGUCACACAAACCGG | 0.0199 |
| GUGCCUUGCGCCGGGAAACCACGCAAGGGAUGGUGUCAAAUUCGGCGAAACCUAAGCGCCCGCCCGGGCGUAUGGCAACGCGGAGCCAAGCUUCGGCGCCUGCGCCGAUGGAGGUGUAGCGACUAGACGGCACCCACCUAAGGCAAACGUUAUGGUGAAGGCAUAGUCAAGGGAGUGGCGAAAGUCACACAAACCGG | 0.0102 |
| GUGCCUUGCGCCGGGAAACCACGCAAGGGAUGGUGUCAAAUUCGGCGAAACCUAAGCGCCCGCCCGGGCGUAUGGCAACGCGGAGCCAAGCUUCGGCGCCUGCGCCGAUGGAGGUGUAGCGACUAGACGGCACCCACCUAAGGCAAACGUUAUGGUGAAGGCAUAGUCUAGGGAGUGGCGAAAGUCACACAAACCGG | 0.0144 |
| GUGCCUUGCGCCGGGAAACCACGCAAGGGAUGGUGUCAAAUUCGGCGAAACCUAAGCGCCCGCCCGGGCGUAUGGCAACGCGGAGCCAAGCUUCGGCGCCUGCGCCGAUGGAGGUGUAGCGACUAGACGGCACCCACCUAAGGCAAACGUUAUGGUGAAGGCAUAGUCGAGGGAGUGGCGAAAGUCACACAAACCGG | 0.00909 |
